Results reported in publication PMC7827474, “DnaJ Proteins Regulate WUS Expression in Shoot Apical Meristem of Arabidopsis”.

Experiments:
MBP:WUS = biological target: T1, MBP:WUS (Arabidopsis thaliana, UniProt Q9SB92 1-292); test: EMSA; EMSA: 10 mM HEPES pH 7.8, 20 mM KCl, 1 mM MgCl2, 21 mM DTT (so in the source), 7.5% glycerol, 0.5% Triton-100, 300 ng carrier DNA, 0.02% BSA, 10 uL, 22 C, 30 min; 8%; details: protein: recombinant; tags: MBP; chain copies: 2; label: Texas Red (3' end per Methods); blunt
T1 sequence: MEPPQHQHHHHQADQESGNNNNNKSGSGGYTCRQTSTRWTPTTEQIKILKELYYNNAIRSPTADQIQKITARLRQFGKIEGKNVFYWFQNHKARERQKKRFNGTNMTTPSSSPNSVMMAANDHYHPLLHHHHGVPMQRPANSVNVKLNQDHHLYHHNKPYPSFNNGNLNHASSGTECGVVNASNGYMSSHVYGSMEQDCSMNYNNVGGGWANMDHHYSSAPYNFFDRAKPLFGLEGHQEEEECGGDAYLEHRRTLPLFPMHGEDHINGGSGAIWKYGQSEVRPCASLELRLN

MBP:WUS;MBP:SDJ3 = biological target: T2, MBP:WUS;MBP:SDJ3 (Arabidopsis thaliana;Arabidopsis …, UniProt Q9SB92;F4I0F5 1-292;1-797, |); test: EMSA; more efficient than WUS alone; EMSA: 10 mM HEPES pH 7.8, 20 mM KCl, 1 mM MgCl2, 21 mM DTT (so in the source), 7.5% glycerol, 0.5% Triton-100, 300 ng carrier DNA, 0.02% BSA, 10 uL, 22 C, 30 min; 8%; details: protein: recombinant;recombinant; tags: MBP;MBP; label: Texas Red (3' end per Methods); blunt
T2 sequence 1: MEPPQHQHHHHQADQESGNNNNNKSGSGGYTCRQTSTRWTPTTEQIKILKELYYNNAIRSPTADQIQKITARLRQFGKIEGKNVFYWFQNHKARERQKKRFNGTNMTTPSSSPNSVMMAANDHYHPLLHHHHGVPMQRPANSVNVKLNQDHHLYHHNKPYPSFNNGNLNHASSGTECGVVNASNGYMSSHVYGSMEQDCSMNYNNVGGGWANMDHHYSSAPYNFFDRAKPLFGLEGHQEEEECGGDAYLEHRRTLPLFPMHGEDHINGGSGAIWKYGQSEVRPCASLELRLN
T2 sequence 2: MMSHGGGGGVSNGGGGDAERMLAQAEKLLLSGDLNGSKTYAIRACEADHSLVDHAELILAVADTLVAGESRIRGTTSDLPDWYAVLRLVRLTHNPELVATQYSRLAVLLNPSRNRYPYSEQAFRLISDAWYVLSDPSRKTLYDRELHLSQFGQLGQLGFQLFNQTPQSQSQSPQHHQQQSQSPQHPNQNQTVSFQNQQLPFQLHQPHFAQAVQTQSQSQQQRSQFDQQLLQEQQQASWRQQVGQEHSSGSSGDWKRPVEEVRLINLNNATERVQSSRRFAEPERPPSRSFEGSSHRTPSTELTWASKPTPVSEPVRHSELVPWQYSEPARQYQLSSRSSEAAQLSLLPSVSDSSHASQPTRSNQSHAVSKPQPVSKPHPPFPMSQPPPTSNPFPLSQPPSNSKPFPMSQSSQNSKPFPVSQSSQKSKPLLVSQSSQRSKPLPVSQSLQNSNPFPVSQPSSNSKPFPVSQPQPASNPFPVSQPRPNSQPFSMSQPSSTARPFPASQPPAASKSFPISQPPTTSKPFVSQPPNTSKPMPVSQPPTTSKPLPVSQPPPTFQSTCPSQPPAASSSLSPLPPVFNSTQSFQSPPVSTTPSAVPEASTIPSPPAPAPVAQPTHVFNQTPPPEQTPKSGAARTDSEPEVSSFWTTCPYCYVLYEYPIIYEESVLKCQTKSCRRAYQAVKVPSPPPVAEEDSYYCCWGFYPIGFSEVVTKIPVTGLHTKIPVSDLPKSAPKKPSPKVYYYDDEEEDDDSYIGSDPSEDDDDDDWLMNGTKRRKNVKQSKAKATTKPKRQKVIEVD

MBP:WUS;MBP:At5g09540 = biological target: T3, MBP:WUS;MBP:At5g09540 (Arabidopsis thaliana;Arabidopsis …, UniProt Q9SB92;A2RVL3 1-292;1-280, |); test: as above; details: protein: recombinant;recombinant; tags: MBP;MBP; label: Texas Red (3' end per Methods); blunt
T3 sequence 1: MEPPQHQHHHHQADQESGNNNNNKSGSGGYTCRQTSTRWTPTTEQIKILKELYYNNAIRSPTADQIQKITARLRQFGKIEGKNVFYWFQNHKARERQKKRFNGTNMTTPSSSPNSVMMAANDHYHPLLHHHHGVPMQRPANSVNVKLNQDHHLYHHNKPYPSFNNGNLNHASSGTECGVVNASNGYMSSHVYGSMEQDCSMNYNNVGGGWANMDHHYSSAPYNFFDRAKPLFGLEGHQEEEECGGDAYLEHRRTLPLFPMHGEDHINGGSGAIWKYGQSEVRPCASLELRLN
T3 sequence 2: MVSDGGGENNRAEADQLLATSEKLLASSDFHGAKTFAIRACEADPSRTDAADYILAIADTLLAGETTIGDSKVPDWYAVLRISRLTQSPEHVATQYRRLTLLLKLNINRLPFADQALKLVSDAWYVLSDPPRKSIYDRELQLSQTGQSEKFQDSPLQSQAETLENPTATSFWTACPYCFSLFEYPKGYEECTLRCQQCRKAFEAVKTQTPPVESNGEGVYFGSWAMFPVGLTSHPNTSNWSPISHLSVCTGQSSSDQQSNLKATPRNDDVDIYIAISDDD

Measured: binding result

B1: WUS promoter probe (pWUS) (dsDNA)
DNA 1: CTAGAATGAATAATAAAAAAAGTGAAAACCGTTTGATCATAA
DNA 2: TTATGATCAAACGGTTTTCACTTTTTTTATTATTCATTCTAG
binds: MBP:WUS | MBP:WUS;MBP:SDJ3 | MBP:WUS;MBP:At5g09540
